Where a chain is given by its changes, count along the chain named. Read-outs that look alike come from different tables or passages of the source. Blank lines part the entries; values can stand above or below the binder they belong to.
Assays:
[1] = target: T1, human BAFF (10056-HNCH, Sino biological) (human, UniProt Q9Y275 134-285); assay: ELISA, BAFF coated, fusion protein titrated
T1 construct: Bought protein
Experimental: (§1) The binding activity of the antibodies or fusion proteins for BAFF, APRIL, and IL-12/23 p40 was assayed by the ELISA method (coating an antigen protein). The specific procedures were as follows:
(§2) A BAFF (Sino biological, 10056-HNCH), APRIL (R&D Systems, 5860-AP-010/CF), or IL-12/23 p40 (Sino biological, 10052-H08H) protein was diluted to 1 μg/mL with a PBS (BasalMedia, B320) buffer at pH 7.4, and added to a 96-well microplate (Corning, 3590) at 100 μL/well. The plate was incubated at 4° C. overnight. After the liquid was discarded, 300 μL of 5% skim milk (BD, 232100) diluted with PBS was added to each well for blocking, and the plate was incubated at 37° C. for 2 h. After the blocking was completed, the blocking solution was discarded, and the plate was washed 3 times with a PBST buffer (PBS at pH 7.4 containing 0.1% tween-20). 100 μL of test antibody or fusion protein solution diluted in a gradient was added to each well, and the plate was incubated at 37° C. for 1 h. After the incubation was completed, the plate was washed 3 times with PBST. […] The plate was washed 3 times with PBST. 100 μL of TMB chromogenic substrate (KPL, 5120-0077) was added to each well, and the plate was incubated at room temperature for 10-15 min. The reaction was stopped by adding 50 μL of 1 M H₂SO₄ to each well. The plate was read for absorbance values at 450 nm on a microplate reader, the binding curves of the antibodies to an antigen were fitted with software, and the EC₅₀ values were calculated.

[2] = target: T1, human BAFF (10056-HNCH, Sino biological); assay: ELISA, BAFF coated, fusion protein titrated; remark: listed apart in the source
Experimental: as §1, §2

[3] = target: T1, human BAFF (10056-HNCH, Sino biological); assay: competition ELISA: biotin-labeled BAFF to coated BAFF-R
Experimental: (§3) The blocking activity of the antibodies and the fusion proteins for receptors and ligands such as BAFF/BAFF-R, BAFF/BCMA, BAFF/TACI, APRIL/BCMA, APRIL/TACI, and p40/IL-12R1 was assayed by the ELISA method. The specific procedures were as follows:
(§4) A receptor protein was diluted to 2 μg/mL with PBS at pH 7.4 (BasalMedia, B320) and added to a 96-well microplate (Corning, 3590) at 100 μL/well. The plate was incubated at 4° C. overnight. After the liquid was discarded, 200 μL of 1% Casein blocking solution (Thermo, 37528) was added to each well for blocking, and the plate was incubated at 37° C. for 2 h. After the blocking was completed, the blocking solution was discarded, and the plate was washed 3 times with a PBST buffer (PBS at pH 7.4 containing 0.1% tween-20) for later use. A biotin-labeled ligand protein at a fixed concentration was mixed with the antibody or fusion protein diluted in gradient, pre-incubated at 37° C. for 30 min, and added to a blocked microplate. The plate was incubated at 37° C. for 1.5 h. After the incubation was completed, the plate was washed 3 times with PBST. 100 μL of streptavidin-HRP (Invitrogen, 434323, diluted at a ratio of 1:4000) was added to each well, and the plate was incubated at 37° C. for 1 h. The supernatant was removed, and the plate was washed 3 times with PBST. 100 μL of TMB chromogenic substrate (KPL, 5120-0077) was added to each well, and the plate was incubated at room temperature for 10-15 min. The reaction was stopped by adding 50 μL of 1 M H₂SO₄ to each well. The plate was read for absorbance values at 450 nm on a microplate reader, the curves for the inhibition of the binding of the ligands to the receptors were fitted with software, and the IC₅₀ values were calculated.

[4] = target: T1, human BAFF (10056-HNCH, Sino biological); assay: as above; remark: listed apart in the source
Experimental: as §3, §4

[5] = target: T2, human APRIL (5860-AP-010/CF, R&D Systems) (human, UniProt O75888 115-250, limits assumed); assay: SPR (Biacore), sample captured on Protein A, antigen flowed, 1:1 fit
T2 construct: Bought protein
T2 sequence (looked up): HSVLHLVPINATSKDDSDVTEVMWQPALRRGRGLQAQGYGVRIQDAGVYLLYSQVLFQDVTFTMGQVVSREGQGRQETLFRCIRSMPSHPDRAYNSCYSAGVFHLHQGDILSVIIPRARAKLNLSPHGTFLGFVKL
Experimental: A certain amount of test sample was subjected to affinity capture by a biosensor chip Protein A (GE, 29127556), then antigens at a series of concentration gradients were allowed to flow on the surface of the chip. The reaction signals were detected in real time by using Biacore (GE, 8K) to obtain association and dissociation curves. After the dissociation was completed for each cycle, the biochip was washed and regenerated with a 10 mM glycine-hydrochloric acid solution at pH 1.5 (GE, BR-1003-54). The experimental data were fitted using BIAevaluation version 4.1, GE software with a 1:1 model to obtain affinity values. The related antigen proteins used in this assay are as follows: human IL-23 (CT048-H08H, Sino biological), human IL-12 (CT050-H08H, Sino biological), human BAFF (10056-HNCH, Sino biological), human APRIL (5860-AP-010/CF, R&D Systems), cynomolgus monkey p40 (10215-CL, R&D Systems), cynomolgus monkey BAFF (BAF-CM412B, Kactus), cynomolgus monkey APRIL (APR-CM410B, Kactus), mouse BAFF (BAF-M521y, Acro Biosystems), and mouse APRIL (7907-AP/CF, R&D Systems).

[6] = target: T1, human BAFF (10056-HNCH, Sino biological); assay: as above
[7] = target: BAFF (R&D Systems, 7537-BF) (UniProt Q9Y275 134-285); assay: cell-based or functional assay
[8] = target: T2, human APRIL (5860-AP-010/CF, R&D …); assay: cell-based or functional assay
[9] = target: T1, human BAFF (10056-HNCH, Sino biological); assay: competition ELISA: biotin-labeled BAFF to coated BAFF-R; remark: listed apart in the source
Experimental: as §3, §4

[10] = target: T3, BAFF (ACROBiosystems, BAF-H5248) (UniProt Q9Y275 134-285); assay: ELISA, fusion protein coated, BAFF titrated, Anti-His-HRP
T3 construct: Bought protein used in the ELISA with coated test sample
Experimental: The binding activity of the TACI fusion proteins for BAFF and APRIL was assayed by the ELISA method (coating a test fusion protein sample). The specific procedures were as follows:
The test sample was diluted to 2 μg/mL with a PBS (BasalMedia, B320) buffer at pH 7.4 and added to a 96-well microplate (Corning, 3590) at 100 μL/well. The plate was incubated at 4° C. overnight. After the liquid was discarded, 300 μL of 5% skim milk (BD, 232100) diluted with PBS was added to each well for blocking, and the plate was incubated at 37° C. for 2 h. After the blocking was completed, the blocking solution was discarded, and the plate was washed 3 times with a PBST buffer (PBS at pH 7.4 containing 0.1% tween-20). 100 μL of BAFF (ACROBiosystems, BAF-H5248) or APRIL (R&D Systems, 5860-AP-010/CF) diluted in a gradient was added to each well, and the plate was incubated at 37° C. for 1 h. After the incubation, the plate was washed 3 times with PBST. When detecting the binding to BAFF, 100 μL of Anti-His-HRP (Sino biological, 105327-MM02T-H, diluted at a ratio of 1:2000) was added to each well; when detecting the binding to APRIL, 100 μL of anti-HA-HRP (Abcam, ab1190, diluted at a ratio of 1:4000) was added to each well. The plate was incubated at 37° C. for 1 h. The plate was washed 3 times with PBST. 100 μL of TMB chromogenic substrate (KPL, 5120-0077) was added to each well, and the plate was incubated at room temperature for 10-15 min. The reaction was stopped by adding 50 μL of 1 M H₂SO₄ to each well. The plate was read for absorbance values at 450 nm on a microplate reader, the binding curves of the antibodies to an antigen were fitted with software, and the EC₅₀ values were calculated.

B1: TACI-9 Fc (Fc fusion)
chain: SLSCRKEQGKFYDHLLRDCISCASICGQHPKQCAYFCENKLDKTHTCPPCPAPEAEGAPSVFLFPPKPKDTLMISRTPEVTCVVVDVSHEDPEVKFNWYVDGVEVHNAKTKPREEQYNSTYRVVSVLTVLHQDWLNGKEYKCKVSNKALPSSIEKTISKAKGQPREPQVYTLPPSRDELTKNQVSLTCLVKGFYPSDIAVEWESNGQPENNYKTTPPVLDSDGSFFLYSKLTVDKSRWQQGNVFSCSVMHEALHNHYTQKSLSLSPGK
notes: TACI positions 68-108, no mutation, fused directly to Fc; two identical polypeptides
- EC50 [1]: 0.49 nM
- EC50 [2]: 0.418 nM
- IC50 [3]: 5.02 nM
- IC50 [4]: 2.09 nM
- Kd [5]: 0.018 nM
- koff [5]: 0.000207 s⁻¹
- kon [5]: 1.15e+07 M⁻¹ s⁻¹
- Kd [6]: 0.0748 nM
- koff [6]: 1.62e-05 s⁻¹
- kon [6]: 217000 M⁻¹ s⁻¹

B2: TACI-9-15Fc6 fusion protein (Fc fusion)
chain: STSCREEQGEFYDHLLRDCISCASICGQHPKQCAAFCEEPKSSDKTHTCPPCPAPEAEGAPSVFLFPPKPKDTLMISRTPEVTCVVVDVSHEDPEVKFNWYVDGVEVHNAKTKPREEQYNSTYRVVSVLTVLHQDWLNGKEYKCKVSNKALPSSIEKTISKAKGQPREPQVYTLPPSRDELTKNQVSLTCLVKGFYPSDIAVEWESNGQPENNYKTTPPVLDSDGSFFLYSKLTVDKSRWQQGNVFSCSVMHEALHNHYTQKSLSLSPGK
notes: Full-length chain
- IC50 (nM) for the inhibition of the BAFF-induced B cell proliferation [7]: 0.0481 nM
- IC50 (nM) for the inhibition of the APRIL-induced B cell proliferation [8]: 0.14 nM
- IC50 [9]: 1.87 nM
- EC50 [10]: 8.48 nM

B3: TACI-9-15Fc8 fusion protein (Fc fusion)
chain: STSCREEQGEFYDHLLRDCISCASICGQHPKQCAAFCEEPKSSDKTHTCPPCPAPEAEGAPSVFLFPPKPKDTLMISRTPEVTCVVVDVSHEDPEVKFNWYVDGVEVHNAKTKPREEQYNSTYRVVSVLTVLHQDWLNGKEYKCKVSNKALPSSIEKTISKAKGQPREPQVYTLPPSRDELTKNQVSLTCLVKGFYPSDIAVEWESNGQPENNYKTTPPVLDSDGSFFLYSKLTVDKSRWQQGNVFSCSVMHEALHNHYTQKSLSLSPGGGGSSTSCREEQGEFYDHLLRDCISCASICGQHPKQCAAFCESK
notes: Full-length chain
- IC50 (nM) for the inhibition of the BAFF-induced B cell proliferation [7]: 0.0291 nM
- IC50 (nM) for the inhibition of the APRIL-induced B cell proliferation [8]: 0.00477 nM
- IC50 [9]: 1.56 nM
- EC50 [10]: 10.5 nM

More lines, now with the values ahead:

- IC50 (nM) for the inhibition of the BAFF-induced B cell proliferation [7]: 0.0262 nM
- IC50 (nM) for the inhibition of the APRIL-induced B cell proliferation [8]: 0.00947 nM
- IC50 [9]: 1.19 nM
- EC50 [10]: 8.94 nM
B4: TACI-9-15Fc9 fusion protein (Fc fusion)
chain: B3 chain with K313S
notes: Full-length chain

- IC50 (nM) for the inhibition of the BAFF-induced B cell proliferation [7]: 0.0244 nM
- IC50 (nM) for the inhibition of the APRIL-induced B cell proliferation [8]: 0.00481 nM
- IC50 [9]: 1.38 nM
- EC50 [10]: 8.95 nM
B5: TACI-9-15Fc7 fusion protein (Fc fusion)
chain: B3 chain with S312Q
notes: Full-length chain

- IC50 [9]: 1.44 nM
- EC50 [10]: 8.89 nM
B6: TACI-9-15Fc5 fusion protein (Fc fusion)
chain: STSCREEQGEFYDHLLRDCISCASICGQHPKQCAAFCEDKTHTCPPCPAPEAEGAPSVFLFPPKPKDTLMISRTPEVTCVVVDVSHEDPEVKFNWYVDGVEVHNAKTKPREEQYNSTYRVVSVLTVLHQDWLNGKEYKCKVSNKALPSSIEKTISKAKGQPREPQVYTLPPSRDELTKNQVSLTCLVKGFYPSDIAVEWESNGQPENNYKTTPPVLDSDGSFFLYSKLTVDKSRWQQGNVFSCSVMHEALHNHYTQKSLSLSPGK
notes: Full-length chain

Reference: patent publication US20240301031A1 (JIANGSU HENGRUI PHARMACEUTICALS, published 2024)
